The values that follow come from US20200262914A1 (MIT, published 2020).

In assay [1] the target is T1, human Mcl-1 (residues 172-327) (human, UniProt Q07820 172-327).
T1 construct: range 172-327
In words: yeast surface display.

Assay [2] addresses T2, human Bcl-xL (residues 1-209) (human, UniProt Q07817 1-209).
T2 construct: range 1-209
The experiment in a line: yeast surface display.

Assay [3] concerns the target T3, human Bfl-1 (residues 1-151) (human, UniProt Q16548 1-151).
T3 construct: range 1-151
T3 sequence (looked up): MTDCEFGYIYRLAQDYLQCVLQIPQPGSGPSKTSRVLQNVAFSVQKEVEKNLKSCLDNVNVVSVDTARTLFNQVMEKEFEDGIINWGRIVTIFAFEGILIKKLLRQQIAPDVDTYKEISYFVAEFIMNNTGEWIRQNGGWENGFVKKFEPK
In words: yeast surface display.

For assay [4], the target named is T3, human Bfl-1 (residues 1-151). In words: competition FP vs fluoresceinated Bim BH3, solution.
Description: (§1) We used the cell-surface experiments to select six peptides, for which we determined solution Ki values using a competition fluorescence polarization (FP) assay (FIG. 3, panel d).
Assay [5] deals with T1, human Mcl-1 (residues 172-327). Described as above.
Description: as §1
Assay [6] shares this target. In words: yeast display, sparse titration, apparent KD.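 Further: designs displayed on the yeast cell surface, binding of soluble target protein measured at four concentrations spanning nanomolar to micromolar, apparent KD estimated from this sparse titration.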
Protocol: (§2) We measured binding of the designs to 1, 10, 100 or 1000 nM of Bcl-xL, Mcl-1 and Bfl-1 using yeast cell-surface display.
The target in assay [7] is T3, human Bfl-1 (residues 1-151). The experiment in a line: yeast display, sparse titration, apparent KD.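 Further: designs displayed on the yeast cell surface, binding of soluble target protein measured at four concentrations spanning nanomolar to micromolar, apparent KD estimated from this sparse titration.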
Protocol: as §2
The target of assay [8] is T2, human Bcl-xL (residues 1-209). In words: yeast display, sparse titration, apparent KD.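 Further: designs displayed on the yeast cell surface, binding of soluble target protein measured at four concentrations spanning nanomolar to micromolar, apparent KD estimated from this sparse titration.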
Protocol: as §2

T1 sequence (Q07820 172-327 limits assumed): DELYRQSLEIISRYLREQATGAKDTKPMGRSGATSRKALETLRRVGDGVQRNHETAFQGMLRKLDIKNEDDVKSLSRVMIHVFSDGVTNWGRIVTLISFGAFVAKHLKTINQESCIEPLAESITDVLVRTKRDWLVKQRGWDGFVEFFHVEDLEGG
T2 sequence (Q07817 1-209 limits assumed): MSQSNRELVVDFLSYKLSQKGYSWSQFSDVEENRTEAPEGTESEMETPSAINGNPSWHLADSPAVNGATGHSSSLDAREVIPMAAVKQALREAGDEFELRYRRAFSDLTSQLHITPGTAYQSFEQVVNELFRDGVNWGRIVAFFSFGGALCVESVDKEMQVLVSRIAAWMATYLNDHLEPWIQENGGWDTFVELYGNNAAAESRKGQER

B1: MF01 (peptide)
peptide: GRRIDEIAQILRRIGDHIEKYI
On to B1, for which the binding result in assay [1], in assay [2] and in assay [3] was “binds” in each case.

B2: MF05 (peptide)
peptide: GRRIDEIAQILRRIGDHVEKYI
As to B2, the binding result in assay [1], in assay [2] and in assay [3] was “binds” each time.

B3: srt.F4 (peptide)
peptide: Ac-QRVVHIAAGLRRTGDQLEAYGER-NH2
As for B3, in assay [4], the Ki (as a rule, the dissociation constant of the complex between target and ligand, obtained from inhibition or displacement) is over 4000 nM.

B4: Puma (peptide)
peptide: Ac-QWAREIGAQLRRMADDLNAQYER-NH2
Consider B4, for which the Ki in assay [5] amounted to 1.69 nM; in assay [4], 4.8 nM.

B5: srt.M9 (peptide)
peptide: Ac-RSQYEVIQELIRIGDIVLAYFER-NH2
notes: synthetic solution peptide; also called vM9
B5 returned a Ki in assay [5] of 0.6 nM. This counts as sub-nanomolar.

B6: M9 (peptide)
peptide: GRSQYEVIQELIRIGDIVLAYF
Consider B6, for which the Kd in assay [6] was under 100 nM.

B7: MF06 (peptide)
peptide: GRRVDEIAQILRRIGDNVTTYI
notes: also called MF6
Take B7: the binding result in assay [1] and in assay [3] was “binds” in each case.

B8: srt.M1 (peptide)
peptide: Ac-RSELEVVQELVRIGDIVVAYFER-NH2
notes: synthetic solution peptide; also called vM1
Consider B8, for which the Ki in assay [5] came to 2.4 nM. This counts as single-digit nanomolar.

B9: srt.F10 (peptide)
peptide: Ac-RRVVQIAAGLRRAGDQLEKYGER-NH2
Turning to B9, in assay [4], the affinity, expressed as Ki, was 300 nM. That is a sub-micromolar value.

B10: F6 (peptide)
peptide: GQRVVQIAAGLRRTGDQLEKYG
As to B10, in assay [7], the Kd was under 100 nM.

B11: F7 (peptide)
peptide: GQRVVQIAQGLRRTGDQLEKQG
Regarding B11, the Kd in assay [7] was under 100 nM.

B12: F12 (peptide)
peptide: GRRVVQIAQGLRRAGDQLEKQG
For B12, the Kd in assay [7] was under 100 nM.

B13: F3 (peptide)
peptide: GRRVVHIAAGLRRTGDQLEAQG
B13: the Kd in assay [7] is under 100 nM.

B14: F11 (peptide)
peptide: GQRVVQIAQGLRRAGDQLEKYG
As to B14, the Kd in assay [7] was under 100 nM.

B15: F5 (peptide)
peptide: GQRVVHIAQGLRRTGDQLEAQG
For B15, the Kd in assay [7] was under 100 nM.

B16: F8 (peptide)
peptide: GRRVVQIAAGLRRTGDQLEKQG
For the molecule B16, the Kd in assay [7] is under 100 nM.

B17: MX2 (peptide)
peptide: GRSQIWYDQELVRSGDVNAAYR
With B17, the binding result in assay [1] and in assay [2] was “no binding” each time.

B18: MX4 (peptide)
peptide: GRSQIWYDQELVRYADVNAAYR
For B18, the binding result in assay [1] and in assay [2] was “no binding” each time.

B19: MX6 (peptide)
peptide: GRSQIWYVQELVRSGDVNHAYR
In the case of B19, the binding result in assay [1] and in assay [2] was “no binding” each time.

B20: MX5 (peptide)
peptide: GRSQIWYDQELVRYGDVNAAYR
Take B20: the binding result in assay [1] and in assay [2] was “no binding” in each case.

B21: MX3 (peptide)
peptide: GRSQIWYDQELVRSGDENAAYR
As to B21, the binding result in assay [1] and in assay [2] was “no binding” each time.

B22: MX1 (peptide)
peptide: GRSQIWYVQELVRGGDVNHAYR
Consider B22, for which the binding result in assay [1] and in assay [2] was “no binding” each time.

B23: MX7 (peptide)
peptide: GRSEIWYDQELVRSGDVNAAYR
Regarding B23, the binding result in assay [1] and in assay [2] was “no binding” throughout.

B24: MF02 (peptide)
peptide: GRWIDQIAQFLRRIGDHIEKYI
notes: also called MF2
Take B24: the binding result in assay [1], in assay [2] and in assay [3] was “binds” in each case.

B25: X6 (peptide)
peptide: GQSLIWFGASLRRGADEFAAQR
For B25, the Kd in assay [8] is under 100 nM.

B26: X3 (peptide)
peptide: GQPLIWFGASLRRGADEFAKQR
In the case of B26, the Kd in assay [8] is under 100 nM.

B27: X7 (peptide)
peptide: GQPLIWFGAQLRRGADEFAAQR
On to B27, for which the Kd in assay [8] is under 100 nM.

B28: X11 (peptide)
peptide: GQTLIWFGASLRRGADEFAAQR
Turning to B28, the Kd in assay [8] is under 100 nM.

B29: X2 (peptide)
peptide: GQTLIWYGAQLRRYADEFAKQR
With B29, in assay [8], the Kd is under 100 nM.

B30: X4 (peptide)
peptide: GQTLIWYGAQLRRVADDFAKQR
Consider B30, for which, in assay [8], the Kd is under 100 nM.

B31: X8 (peptide)
peptide: GQSMIWYGASLRRAADEFAKQR
With B31, the Kd in assay [8] is under 100 nM.

B32: X5 (peptide)
peptide: GQTAIWYGASLRRAADEFAKQR
Regarding B32, the Kd in assay [8] was under 100 nM.

B33: X9 (peptide)
peptide: GQTLIWYGAQLRRYADDFAKQR
For the molecule B33, in assay [8], the Kd was under 100 nM.

B34: X1 (peptide)
peptide: GQTLIWYGASLRRYADEFAKQR
Consider B34, for which the Kd in assay [8] is under 100 nM.

B35: X10 (peptide)
peptide: GQRLIWYGAQLRRYADDFAKQR
Regarding B35, the Kd in assay [8] was under 100 nM.

B36: X12 (peptide)
peptide: GQGLIWYGAQLRRVADDFAKQR
Consider B36, for which the Kd in assay [8] is under 100 nM.

B37: M1 (peptide)
peptide: GRSELEVVQELVRIGDIVVAYF
On to B37, for which the Kd in assay [6] is under 100 nM.

B38: M3 (peptide)
peptide: GRSLYEYIQELIRIGDEVTAYF
Regarding B38, the Kd in assay [6] is under 100 nM.

B39: M4 (peptide)
peptide: GRSLLEYIQELIRIGDEVIAYF
For B39, in assay [6], the Kd is under 100 nM.

B40: M11 (peptide)
peptide: GRSEYEYIQELIRIGDIVDAYF
Take B40: in assay [6], the Kd was under 100 nM.

B41: M7 (peptide)
peptide: GRSELEYIQELIRIGDNVDAYF
For the molecule B41, the Kd in assay [6] was under 100 nM.

B42: M2 (peptide)
peptide: GRSEYEYIQELVRIGDEVDAYF
With B42, the Kd in assay [6] was under 100 nM.

B43: M5 (peptide)
peptide: GRSELEYIQELVRIGDEVDAYF
In the case of B43, in assay [6], the Kd is under 100 nM.

B44: M6 (peptide)
peptide: GRGQLEYIQELIRIGDIVDAYF
On to B44, for which the Kd in assay [6] is under 100 nM.

B45: M12 (peptide)
peptide: GRGQYEYIQELIRIGDIVDAYF
Turning to B45, the Kd in assay [6] is under 100 nM.

B46: M8 (peptide)
peptide: GRSELEYIQELIRIGDIVDAYF
For B46, the Kd in assay [6] was under 100 nM.

B47: M10 (peptide)
peptide: GRSEYEYIQELIRIGDNVDAYF
Take B47: the Kd in assay [6] is under 100 nM.

B48: MF03 (peptide)
peptide: GRRVDEIAQILRRIGDNIEEYI
B48: the binding result in assay [1], in assay [2] and in assay [3] was “binds” in each case.

B49: F1 (peptide)
peptide: GRRVRHIAQGLRRAGDQLDAYG
With B49, the Kd in assay [7] was under 100 nM.

B50: F2 (peptide)
peptide: GQRVRHIAQGLRRTGDQLDAYG
On to B50, for which the Kd in assay [7] is under 100 nM.

B51: F9 (peptide)
peptide: GRRVRHIAQGLRRAGDQLDKYG
As for B51, the Kd in assay [7] was under 100 nM.
